B1: 12mer DQ2.5-glia-α2 peptide (free) (peptide)
peptide: PQPELPYPQPQL
notes: also called free peptide
B2: 206 hIgG1 (antibody, V domains shown)
VH: QVQLVQSGAEVKKPGSSVKVSCKASGGTFSSYAISWVRQAPGQGLEWMGGIIPIFGTANYAQKFQGRVTITADESTSTAYMELSSLRSEDTAVYYCARDVQRMGMDVWGQGTTVTVSS
VL: DIQMTQSPSSVSTSVGDRVTITCRASQDISNWLAWYQQKPGKAPKLLIYDSSTLQSGVPSRFSGSGSGTDFTLTISTLQPEDFATYYCQQFNSYPLTFGGGTKVDIKR
notes: full-length human IgG1/kappa
B3: 33mer α-gliadin peptide (peptide)
peptide: LQLQPFPQPELPYPQPELPYPQPELPYPQPQPF
B4: 228 hIgG1 (antibody, V domains shown)
VH: QVQLVQSGAEVKKPGSSVKVSCKASGGTFSSYAISWVRQAPGQGLEWMGGIIPIFGTANYAQKFQGRVTITADESTSTAYMELSSLRSEDTAVYYCARGQVLIWTYYYGMDVWGQGTTVTVSS
VL: DIRLTQSPSSLSASVGDRVTITCQASQDISNYLNWYQQKPGKAPKLLIYDASNLETGVPSRFSGSGSGTDFTFIISSLQPEDIATYYCQQYDNLPLTFGGGTKLEIKR
notes: full-length human IgG1/kappa
B5: 220 hIgG1 (antibody, V domains shown)
VH: QVQLVESGAEVKKPGSSVKVSCKASGGTFSSYAISWVRQAPGQGLEWMGGIIPIFGTANYAQKFQGRATITADESTSTAYMELSSLRSEDTAVYYCARGRNTYCSGGSCYSPHFDYWGQGTLVTVSS
VL: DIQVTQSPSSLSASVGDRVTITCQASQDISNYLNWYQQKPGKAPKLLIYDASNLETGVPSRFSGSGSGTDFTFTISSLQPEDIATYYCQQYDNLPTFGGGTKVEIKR
notes: full-length human IgG1/kappa
B6: R2A1-8E hIgG1 (antibody, V domains shown)
VH: QVQLQQSGPGLVKPSQTLSLTCAISGDSVSSNSAAWNWIRQSPSRGLEWLGRTYYRSKWYNDYAVSVKSRITINPDTSKNQFSLQLNSVTPEDTAVYYCARDSSSGWHPYGMDVWGQGTTVTVSS
VL: DIQVTQSPSFLSASVGDRVTITCRASHDISSYLAWYQHKPGKAPKLLIHAASILQSGVPSRFSGSGSGTEFTLTISSLQPEDFATYYCQQLNSYPLLTFGGGTKVDIKR
notes: full-length human IgG1/kappa made in HEK293E; heavy chain constant region with N297G; also called mAb R2A1-8E
B7: 12mer DQ2.5-glia-α1a peptide (free) (peptide)
peptide: QLQPFPQPELPY
notes: also called free peptide
B8: R3A2-9F hIgG1 (antibody)
heavy: not shown
light: DIQVTQSPSFLSASVGDRVTITCRASHDISSYLAWYQHKPGKAPKLLIHAASILQSGVPSRFSGSGSGTEFTLTISSLQPEDFATYYCQDLNSYPLFGQGTRLEIKRTVAAPSVFIFPPSDEQLKSGTASVVCLLNNFYPREAKVQWKVDNALQSGNSQESVTEQDSKDSTYSLSSTLTLSKADYEKHKVYACEVTHQGLSSPVTKSFNRGEC
notes: also called mAb R3A2-9F
B9: R4A1-3A (107) hIgG1 (antibody, V domains shown)
VH: B6 VH
VL: DIQVTQSPSFLSASVGDRVTITCRASHDISSYLAWYQHKPWKAPKLLIHAASILQSGVPSRFSGSGSGTEFTLTISSLQPEDFATYYCQDLNSYPLFGQGTRLEIKR
notes: full-length human IgG1/kappa made in HEK293E; heavy chain constant region with N297G; also called mAb R4A1-3A

Experiments:
[1] = target: B6; experiment: competition ELISA: 0.1 µg/ml hIgG1 pre-incubated with the competitor, then binding to plate-bound HLA-DQ2.5:DQ2.5-glia-α1a
Description: (§1) FIG. 2. […] (C) Eight different HLA-DQ2.5:gluten peptide complexes and HLA-DQ2.5:CLIP2 were used in ELISA for specificity analysis (n=2). mAb 2.12.E11 was included to control pMHC capture levels.
(§2) 96-well MaxiSorp microtiter plates (Nunc) were coated overnight at 4° C. with NeutrAvidin (Avidity, 10 ug/ml in PBS), before blocking with 4% skim milk powder in PBS (w/v). Biotinylated pMHC was captured onto the NeutrAvidin. […] 0.2 μg/ml mAb 2.12.E11 [Viken, H. D., et al., 1995] was detected using polyclonal anti-mouse IgG Fc-ALP (Sigma, 1:2000). […] Assays were performed at RT with duplicate wells, except for single clone screenings with only one well per sample.

[2] = target: B8; experiment: as above
Description: as §1, §2

[3] = target: B9; experiment: as above
Description: as §1, §2

[4] = target: T1, BSA (Bos taurus, UniProt P02769); experiment: ELISA, hIgG1, control well with BSA
T1 construct: not specified; also called bovine serum albumin
Description: FIG. 14. […] The peptides are annotated according to Sollid, L. M., et al., (Immunogenetics, 2012, 64(6): 455-460) (A). […] Error bars illustrate mean±SD of duplicates. […] HSA=human serum albumin; BSA=bovine serum albumin.
Assays were performed at RT with duplicate wells. Between each layer, the plates were washed 3× with PBST.

[5] = target: B6; experiment: competition ELISA: 0.1 µg/ml hIgG1 pre-incubated with 33mer α-gliadin, then binding to plate-bound HLA-DQ2.5:DQ2.5-glia-α1a
Description: as §1, §2

[6] = target: B8; experiment: as above
Description: as §1, §2

[7] = target: B9; experiment: as above
Description: as §1, §2

[8] = target: B7; experiment: competition ELISA, hIgG1 pre-incubated with competitor
Description: as §1, §2

[9] = target: B1; experiment: as above
Description: as §1, §2

[10] = target: B3; experiment: as above
Description: as §1, §2

[11] = target: T1, BSA; experiment: ELISA, hIgG1 (printed anti-glia1a_no106), control well with BSA

T1 sequence (P02769 25-607 limits assumed): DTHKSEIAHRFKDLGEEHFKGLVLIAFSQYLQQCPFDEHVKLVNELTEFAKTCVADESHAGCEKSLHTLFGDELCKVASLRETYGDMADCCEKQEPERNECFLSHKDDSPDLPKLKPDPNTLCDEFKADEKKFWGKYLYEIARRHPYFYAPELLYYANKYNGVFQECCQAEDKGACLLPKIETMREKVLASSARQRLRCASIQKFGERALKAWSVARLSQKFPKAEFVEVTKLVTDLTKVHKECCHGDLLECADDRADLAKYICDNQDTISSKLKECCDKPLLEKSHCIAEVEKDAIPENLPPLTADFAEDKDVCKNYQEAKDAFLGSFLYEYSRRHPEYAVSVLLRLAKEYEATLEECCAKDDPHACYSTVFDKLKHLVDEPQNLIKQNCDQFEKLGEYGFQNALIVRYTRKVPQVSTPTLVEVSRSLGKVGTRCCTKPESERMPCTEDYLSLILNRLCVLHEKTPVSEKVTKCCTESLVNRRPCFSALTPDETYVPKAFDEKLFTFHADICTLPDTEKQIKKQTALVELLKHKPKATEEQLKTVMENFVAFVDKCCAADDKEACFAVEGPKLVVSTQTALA

Row | binding result [4] | binding result [8] | binding result [9] | binding result [10] | Binder | also measured
1 | – | – | – | – | B1 | binding result [1]: no binding (tested: 1 µM); binding result [2]: no binding (tested: 1 µM); binding result [3]: no binding (tested: 1 µM)
2 | no binding (tested: 0.5 µg/ml) | – | – | – | B2 | –
3 | – | – | – | – | B3 | binding result [5]: no binding (tested: 1 µM); binding result [6]: no binding (tested: 1 µM); binding result [7]: no binding (tested: 1 µM)
4 | no binding (tested: 0.5 µg/ml) | – | – | – | B4 | –
5 | no binding (tested: 0.5 µg/ml) | – | – | – | B5 | –
6 | – | no binding (tested: 1 µM) | no binding (tested: 1 µM) | no binding (tested: 1 µM) | B6 | –
7 | – | – | – | – | B7 | binding result [1]: no binding (tested: 1 µM); binding result [2]: no binding (tested: 1 µM); binding result [3]: no binding (tested: 1 µM)
8 | – | no binding (tested: 1 µM) | no binding (tested: 1 µM) | no binding (tested: 1 µM) | B8 | binding result [11]: no binding (tested: 0.5 µg/ml)
9 | – | no binding (tested: 1 µM) | no binding (tested: 1 µM) | no binding (tested: 1 µM) | B9 | –

Reference: US20210147552A1 (UNIVERSITETET I OSLO, published 2021)
